Targets include DLG4_2, P78352; FRMPD3, Q5JV73; Inadl_3, Q8NI35; PTPN3, P26045; FRMPD2_2, Q68DX3; SCRIB_2, Q14160; HTRA1, Q92743; DLG1_2, Q12959; LNX1_2, Q8TBB1; MAST2, Q6P0Q8; SNX27, Q96L92.
Test in all cases: holdup assay
Common to all, as to design: key: below the threshold = too weak to quantify, mostly under pKd 3.1 to 4
What all share (details): plain residues with an end cap or a label only (N-terminal biotin on a linker: ado-ado)

For a further experiment, the target named is T1, LIN7A, O14910.
T1 sequence (O14910 103-200, limits assumed, looked up): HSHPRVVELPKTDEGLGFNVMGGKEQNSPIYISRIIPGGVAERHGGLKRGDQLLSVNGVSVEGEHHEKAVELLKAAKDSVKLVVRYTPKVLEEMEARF

The target of another experiment is T2, MPDZ_10, O75970.
T2 sequence (O75970 1624-1722, limits assumed, looked up): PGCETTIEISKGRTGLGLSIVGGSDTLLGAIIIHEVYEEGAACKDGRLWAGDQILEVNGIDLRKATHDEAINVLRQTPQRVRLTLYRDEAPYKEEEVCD

The target in the next experiment is T3, RAPGEF6, Q8TEU7.
T3 sequence (Q8TEU7 525-625, limits assumed, looked up): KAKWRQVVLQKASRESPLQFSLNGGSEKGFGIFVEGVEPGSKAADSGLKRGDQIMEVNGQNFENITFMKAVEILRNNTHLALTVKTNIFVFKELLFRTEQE

In the next experiment the target is T4, LNX2_2, Q8N448.
T4 sequence (Q8N448 334-432, limits assumed, looked up): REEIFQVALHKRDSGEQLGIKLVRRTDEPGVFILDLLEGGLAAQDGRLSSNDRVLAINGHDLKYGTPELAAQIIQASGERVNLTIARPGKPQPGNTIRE

The target of a further experiment is T5, TIAM2, Q8IVF5.
T5 sequence (Q8IVF5 885-986, limits assumed, looked up): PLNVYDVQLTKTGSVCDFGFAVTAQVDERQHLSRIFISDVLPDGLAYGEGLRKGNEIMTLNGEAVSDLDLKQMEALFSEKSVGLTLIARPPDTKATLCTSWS

The target of the next experiment is T6, PDZD7_3, Q9H5P4.
T6 sequence (Q9H5P4 857-944, limits assumed, looked up): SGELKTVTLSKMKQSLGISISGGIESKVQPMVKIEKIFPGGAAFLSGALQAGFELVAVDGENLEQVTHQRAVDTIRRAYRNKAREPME

The target of another experiment is T7, FRMPD1, Q5SYB0.
T7 sequence (Q5SYB0 52-145, limits assumed, looked up): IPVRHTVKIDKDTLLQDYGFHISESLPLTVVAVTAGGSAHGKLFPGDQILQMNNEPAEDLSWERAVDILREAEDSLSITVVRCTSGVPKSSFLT

Another experiment deals with T8, DFNB31_1, Q9P202.
T8 sequence (Q9P202 135-233, limits assumed, looked up): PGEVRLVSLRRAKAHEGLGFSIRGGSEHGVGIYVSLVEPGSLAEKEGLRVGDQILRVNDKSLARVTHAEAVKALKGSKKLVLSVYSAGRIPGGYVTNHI

For a further experiment, the target named is T9, SIPA1L2, Q9P2F8.
T9 sequence (Q9P2F8 945-1036, limits assumed, looked up): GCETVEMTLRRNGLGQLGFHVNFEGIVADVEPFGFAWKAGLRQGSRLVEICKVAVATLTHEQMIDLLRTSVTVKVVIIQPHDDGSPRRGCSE

The next experiment deals with T10, NHERF3_4, Q5T2W1.
T10 sequence (Q5T2W1 373-468, limits assumed, looked up): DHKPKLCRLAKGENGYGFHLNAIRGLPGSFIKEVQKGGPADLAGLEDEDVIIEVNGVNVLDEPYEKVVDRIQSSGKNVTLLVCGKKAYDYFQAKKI

Another experiment deals with T11, PDZRN3_1, Q9UPQ7.
T11 sequence (Q9UPQ7 244-349, limits assumed, looked up): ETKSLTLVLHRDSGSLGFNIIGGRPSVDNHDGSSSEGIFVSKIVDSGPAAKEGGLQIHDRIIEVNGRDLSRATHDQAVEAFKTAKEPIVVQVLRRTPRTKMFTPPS

In a further experiment the target is T12, LIN7B, Q9HAP6.
T12 sequence (Q9HAP6 88-185, limits assumed, looked up): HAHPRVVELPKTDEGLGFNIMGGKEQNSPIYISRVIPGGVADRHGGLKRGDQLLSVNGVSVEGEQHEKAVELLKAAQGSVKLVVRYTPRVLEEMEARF

The target in another experiment is T13, SYNJ2BP, P57105.
T13 sequence (P57105 8-110, limits assumed, looked up): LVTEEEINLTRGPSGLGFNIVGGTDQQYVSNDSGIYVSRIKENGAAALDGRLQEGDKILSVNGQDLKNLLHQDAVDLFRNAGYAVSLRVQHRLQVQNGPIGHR

Sequence of FRMPD3, Q5JV73 (Q5JV73 12-100): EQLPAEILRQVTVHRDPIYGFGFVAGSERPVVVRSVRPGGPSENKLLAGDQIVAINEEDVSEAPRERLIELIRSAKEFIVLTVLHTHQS
Sequence of DLG1_2, Q12959 (Q12959 314-412): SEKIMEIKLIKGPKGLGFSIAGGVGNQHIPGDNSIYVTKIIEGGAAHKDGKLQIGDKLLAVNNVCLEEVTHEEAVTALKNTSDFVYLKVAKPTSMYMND
Sequence of DLG4_2, P78352 (P78352 155-259): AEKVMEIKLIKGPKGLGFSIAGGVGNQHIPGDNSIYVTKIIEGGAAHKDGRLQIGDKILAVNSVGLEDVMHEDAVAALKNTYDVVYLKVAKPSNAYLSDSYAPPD
Sequence of PTPN3, P26045 (P26045 505-587): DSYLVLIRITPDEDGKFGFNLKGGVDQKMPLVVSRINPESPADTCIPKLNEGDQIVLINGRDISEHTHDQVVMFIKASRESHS
Sequence of LNX1_2, Q8TBB1 (Q8TBB1 371-470): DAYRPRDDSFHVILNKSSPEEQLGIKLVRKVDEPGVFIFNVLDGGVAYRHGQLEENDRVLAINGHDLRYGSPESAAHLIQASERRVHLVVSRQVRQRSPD
Sequence of Inadl_3, Q8NI35 (Q8NI35 359-469): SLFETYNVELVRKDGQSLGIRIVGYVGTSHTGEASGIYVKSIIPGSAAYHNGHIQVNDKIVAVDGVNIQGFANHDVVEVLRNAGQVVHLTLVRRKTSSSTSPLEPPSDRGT
Sequence of MAST2, Q6P0Q8 (Q6P0Q8 1099-1202): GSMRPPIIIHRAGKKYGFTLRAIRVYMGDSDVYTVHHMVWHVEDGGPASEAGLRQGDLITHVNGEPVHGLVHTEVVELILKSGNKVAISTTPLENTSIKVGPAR
Sequence of FRMPD2_2, Q68DX3 (Q68DX3 944-1038): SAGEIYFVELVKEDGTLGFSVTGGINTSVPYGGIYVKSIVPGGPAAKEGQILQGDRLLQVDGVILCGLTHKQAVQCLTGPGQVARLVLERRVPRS
Sequence of HTRA1, Q92743 (Q92743 360-477): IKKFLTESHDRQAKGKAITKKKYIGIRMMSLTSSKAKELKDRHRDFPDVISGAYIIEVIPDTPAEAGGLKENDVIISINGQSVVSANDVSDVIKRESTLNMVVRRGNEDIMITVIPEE
Sequence of SCRIB_2, Q14160 (Q14160 857-960): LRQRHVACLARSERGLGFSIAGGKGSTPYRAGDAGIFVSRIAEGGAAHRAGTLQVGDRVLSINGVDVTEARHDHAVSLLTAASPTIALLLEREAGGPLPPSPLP

As for SVISRREWYV [NECTIN3, Q9NQS3], the negative-log Kd (pKd) is 3.58 with LIN7A, O14910; 3.75 in the experiment with DLG4_2, P78352; 4.06 with FRMPD3, Q5JV73; 5.03 with Inadl_3, Q8NI35; “below the threshold” with MPDZ_10, O75970; 4.25 with PTPN3, P26045. For the same molecule, the pKd is 4.14 with FRMPD2_2, Q68DX3; “below the threshold” with SCRIB_2, Q14160; “below the threshold” with RAPGEF6, Q8TEU7; 5.62 in the experiment with HTRA1, Q92743; 5.15 with LNX2_2, Q8N448; 5.1 with TIAM2, Q8IVF5. The negative logarithm of the Kd (pKd) result with PDZD7_3, Q9H5P4 is “below the threshold”; with FRMPD1, Q5SYB0, “below the threshold”; with DFNB31_1, Q9P202, “below the threshold”; with SIPA1L2, Q9P2F8 it was “below the threshold”; in the experiment with DLG1_2, Q12959, 3.52; in the experiment with LNX1_2, Q8TBB1, 4.59. Moreover, the negative logarithm of the Kd (pKd) entry is “below the threshold” with NHERF3_4, Q5T2W1; “below the threshold” with PDZRN3_1, Q9UPQ7; 4.61 with MAST2, Q6P0Q8; “below the threshold” in the experiment with SNX27, Q96L92; “below the threshold” with LIN7B, Q9HAP6; 3.55 with SYNJ2BP, P57105.
Turning to AEDEEIQTKM [UNC93A, Q86WB7], the pKd result in the experiment with LIN7A, O14910 was “below the threshold”; with DLG4_2, P78352, “below the threshold”; with FRMPD3, Q5JV73 it was “below the threshold”; with Inadl_3, Q8NI35, “below the threshold”; with MPDZ_10, O75970 it was “below the threshold”; with PTPN3, P26045, 4.17. The pKd result is on record as “below the threshold” in the experiment with FRMPD2_2, Q68DX3; “below the threshold” with SCRIB_2, Q14160; “below the threshold” with RAPGEF6, Q8TEU7; “below the threshold” with HTRA1, Q92743; “below the threshold” with LNX2_2, Q8N448; “below the threshold” in the experiment with TIAM2, Q8IVF5. The pKd entry is on record as “below the threshold” with PDZD7_3, Q9H5P4; “below the threshold” with FRMPD1, Q5SYB0; “below the threshold” with DFNB31_1, Q9P202; “below the threshold” with SIPA1L2, Q9P2F8; “below the threshold” with DLG1_2, Q12959; “below the threshold” with LNX1_2, Q8TBB1. The negative logarithm of the Kd (pKd) in the experiment with NHERF3_4, Q5T2W1 is 4.52; with PDZRN3_1, Q9UPQ7, “below the threshold”; with MAST2, Q6P0Q8 it was 5.38; with SNX27, Q96L92, 4.5; in the experiment with LIN7B, Q9HAP6, “below the threshold”; with SYNJ2BP, P57105, “below the threshold”.
GDGLDDEIAV [NOS1AP, O75052]: the negative logarithm of the Kd (pKd) result was “below the threshold” with LIN7A, O14910; “below the threshold” with DLG4_2, P78352; 4.16 in the experiment with FRMPD3, Q5JV73; “below the threshold” with Inadl_3, Q8NI35; “below the threshold” with MPDZ_10, O75970; 3.79 with PTPN3, P26045. The negative-log Kd (pKd) entry with FRMPD2_2, Q68DX3 was “below the threshold”; with SCRIB_2, Q14160 it was “below the threshold”; in the experiment with RAPGEF6, Q8TEU7 it was “below the threshold”; in the experiment with HTRA1, Q92743, 4.68; in the experiment with LNX2_2, Q8N448, 4.37; with TIAM2, Q8IVF5 it was 3.8. The negative-log Kd (pKd) result was “below the threshold” in the experiment with PDZD7_3, Q9H5P4; “below the threshold” in the experiment with FRMPD1, Q5SYB0; “below the threshold” with DFNB31_1, Q9P202; “below the threshold” with SIPA1L2, Q9P2F8; “below the threshold” with DLG1_2, Q12959; 3.68 with LNX1_2, Q8TBB1. Further, the negative-log Kd (pKd) entry in the experiment with NHERF3_4, Q5T2W1 is “below the threshold”; with PDZRN3_1, Q9UPQ7, “below the threshold”; with MAST2, Q6P0Q8 it was 4.04; with SNX27, Q96L92, 4.19; in the experiment with LIN7B, Q9HAP6, 3.52; with SYNJ2BP, P57105 it was “below the threshold”.
As for QNRIITKTDV [SMCHD1, A6NHR9], the pKd result with LIN7A, O14910 is “below the threshold”; with DLG4_2, P78352, 4.15; with FRMPD3, Q5JV73, “below the threshold”; with Inadl_3, Q8NI35, “below the threshold”; with MPDZ_10, O75970, 3.97; with PTPN3, P26045, “below the threshold”. In addition, the negative logarithm of the Kd (pKd) result in the experiment with FRMPD2_2, Q68DX3 was “below the threshold”; with SCRIB_2, Q14160, “below the threshold”; with RAPGEF6, Q8TEU7, “below the threshold”; with HTRA1, Q92743 it was “below the threshold”; with LNX2_2, Q8N448, “below the threshold”; in the experiment with TIAM2, Q8IVF5, “below the threshold”. Also, the negative logarithm of the Kd (pKd) with PDZD7_3, Q9H5P4 was 4.13; in the experiment with FRMPD1, Q5SYB0 it was “below the threshold”; with DFNB31_1, Q9P202, “below the threshold”; in the experiment with SIPA1L2, Q9P2F8, “below the threshold”; with DLG1_2, Q12959, 4.23; in the experiment with LNX1_2, Q8TBB1, “below the threshold”. Moreover, the pKd result with NHERF3_4, Q5T2W1 was “below the threshold”; with PDZRN3_1, Q9UPQ7, “below the threshold”; with MAST2, Q6P0Q8, 5.05; with SNX27, Q96L92, 3.84; with LIN7B, Q9HAP6, “below the threshold”; with SYNJ2BP, P57105 it was 4.24.

For orientation: pKd means the negative decadic logarithm of the Kd, by convention in mol/L.
